Data reported in patent US20230073067A1 (INSTITUTE OF MICROBIOLOGY CHINESE ACADEMY OF SCIENCE, published 2023).

Target: 2019-nCoV RBD protein with C-terminal hexa-His tag (2019-nCoV (SARS-CoV-2), UniProt P0DTC2 319-541)
Assay: SPR, Biacore 8K, antibody captured on protein A chip, RBD as analyte
Description: Surface plasmon resonance analysis was performed using Biacore 8K (Biacore Inc.).
Binding kinetic constants were calculated using BIAevaluation software 8K (Biacore, inc.) software.

B1: GH12 antibody (antibody, human IgG1, lambda, V domains shown)
VH: EVQLVESGGGLVQPGGSLRLSCAASGFTFSSYWMSWVRQAPGKGLEWVANIKQDGSEKYYVDSVKGRFTISRDNAKNSLYLQMNSLRAEDTAVYYCTRAGWVRGAFDIWGQGTMVTVSS
VL: NFMLTQPHSVSESPGKTVTISCTGSSGSIASNYVQWYQQRPGSAPTTVIYEDNQRPSGVPDRFSGSIDSSSNSASLTISGLKTEDEADYYCQSYDSSNLWVFGGGTKLTVLG
notes: also called human antibody GH12
Work on B1 yielded a Kd of 5.87 nM, a koff of 0.0173 s⁻¹ and a kon of 2.95e+06 M⁻¹ s⁻¹.
